In the supplement of paper PMC10567573:

B1: RSPH3 (parent)
chain: MTVKPAKAASLARNLAKRRRTYLG
B2: SETD8 (parent)
chain: KKAQGKTQQNRKLTDFYPVRRSSR

Variants of: B1
Test: protein stability index of a GFP-peptide fusion (GPS, HEK-293T) (PSI 1-6); higher = more stable
Settings: c terminus: a fixed tail appended
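Note: lentivirally expressed fusions sorted by FACS into six bins by GFP to DsRed ratio, PSI derived from sequencing read proportions per bin multiplied by bin number.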

Protein stability index: each site, then its substitutions
G24: C 2.64 | K 2.68 | P 3.63 | E 3.54 | T 3.42 | Y 2.42 | L 2.3 | W 1.63 | I 2.35 | S 3.15 | Q 2.94 | F 1.97 | N 3.18 | R 3.46 | A 3.33 | H 2.7 | M 2.38 | D 2.04 | V 2.17
L23: I 4.26 | Y 3 | V 2.96 | T 4.09 | R 3.61 | S 4.5 | P 3.42 | N 3.5 | K 3.5 | W 3.34 | Q 4.34 | M 3.53

Variants of: B2
Test: as above
Settings: c terminus: a fixed tail appended

Protein stability index: each site, then its substitutions
K2: S 2.12 | L 1.57 | T 3.1 | H 3.35 | P 2.13 | F 1.97 | W 3.07 | G 3.04 | M 2.54 | D 2.65 | I 3.63 | R 2.03 | Q 1.83 | Y 2.43 | N 2.56
V19: G 4.08 | F 2.42 | T 2.72 | W 2.09 | K 2.02 | I 3.13 | L 3.11 | R 4.2 | N 3.29 | P 2.88 | Q 3.49 | D 3.32 | M 3.01 | H 3.63 | C 3.26 | Y 3.35 | A 4.57 | E 3.84
F16: Q 1.76 | A 2.54 | E 4.51 | P 3.07 | S 3.07 | I 2.99 | M 3.81 | G 2.74 | Y 3.29 | T 3.17 | D 2.58 | C 2.71 | N 4.28 | H 2.33
N10: C 3.63 | Y 3.04 | D 4.38 | E 2.67 | H 3.49 | T 2.17 | R 2.74 | M 2.39 | I 3.4 | P 2.77 | S 2.35 | A 1.64 | G 1.42 | L 2.39
P18: R 2.54 | Y 2.51 | I 2.66 | F 2.61 | N 1.86 | Q 1.74 | A 3.16 | M 3.82 | D 3.38 | L 3.36 | C 2.47 | W 3.18 | T 3.77
Q4: S 1.13 | E 1.68 | K 3.35 | I 3.18 | Y 2.18 | H 2.73 | V 3.42 | C 1.64 | D 4.69 | R 1.99 | G 2.22 | L 3.69 | T 1.87
K12: T 2.4 | D 2.98 | R 1.86 | M 2.55 | V 2.32 | F 1.93 | S 2.64 | H 1.53 | P 2.97 | Y 3 | E 3.35 | N 2.81 | G 2.76 | L 3.41
D15: M 2.43 | Q 2.36 | Y 2.77 | L 2.87 | I 3.18 | A 2.85 | N 2.92 | V 2.72 | R 3.62 | W 4.09 | P 3.1 | T 3.5 | E 4.29 | H 2.42 | C 2.52 | F 2.74 | S 3.12 | G 3.23
T7: W 2.88 | L 3.08 | H 2.88 | Q 2.66 | E 2.9 | R 3.38 | D 3.32 | F 1.95 | N 3.33 | M 2.41 | S 2.26
Y17: E 3.39 | M 3.05 | V 3.37 | D 4.52 | K 4.5 | Q 4.09 | T 2.06 | L 2.84 | P 5.8 | W 1.41 | C 3.58 | N 3.09 | F 2.72
K1: H 1.54 | C 1.22 | L 4.04 | N 2.13 | T 2.62 | M 2.54 | F 2.11 | S 2.88 | W 2.09 | Q 1.99 | R 2.24 | G 1.81 | V 2.73 | E 1.97 | I 4.17
Q9: H 4.29 | A 3.26 | D 2.83 | S 2.36 | P 1.78 | G 1.89 | R 2.67 | C 3.93 | K 3.66 | Y 2.92 | M 2.25 | L 2.65 | E 3.12
A3: S 3.47 | K 2.72 | L 3.96 | R 3.17 | Y 2.73 | G 3.27 | V 3.41 | W 2.33 | Q 2.4 | F 2.93 | I 2.84 | T 2.43 | D 3.79 | E 3.01 | N 3.12
T14: L 3.72 | D 4.21 | I 2.63 | Y 2.65 | W 3.4 | Q 3.33 | R 3.11 | M 1.79 | E 4.32 | V 3.67 | H 3.1 | G 2.68 | S 2.72 | P 2.4 | A 3.99 | N 3.49
K6: S 1.73 | P 2.06 | M 1.62 | G 3.09 | I 2.09 | C 3.03 | H 1.57 | N 2.82 | A 3.18 | D 2.54 | R 3.1 | W 2.33 | F 2.16 | T 3.58 | V 2.25
G5: S 2.62 | R 1.44 | N 2.53 | Y 2.92 | I 1.68 | L 2.77 | E 2.89 | D 2.89 | H 1.83 | A 1.87 | V 2.65
R20: D 3.66 | T 1.92 | Y 2.25 | L 2.32 | W 3.22 | N 2.83 | S 2 | F 2.63 | Q 3.48 | P 4.13 | M 2.94 | K 1.93 | C 2.78 | G 3.43 | V 3.67
R11: S 2.85 | Q 2.71 | G 1.5 | I 2.45 | F 2.91 | H 3.68 | T 2.19 | N 2.86 | A 1.6 | V 1.86 | W 2.76 | E 2.15 | P 2.61 | L 2.43 | D 3.45 | Y 2.94
Q8: G 2.28 | Y 2.02 | H 2.59 | E 1.69 | P 2.94 | W 3.29 | D 3.23 | F 3.67 | R 2.39 | C 3.34 | V 3.2 | L 2.41 | A 2.45 | S 2.69 | N 2.89 | M 1.89
R21: P 2.7 | I 3.33 | N 3.2 | M 3.63 | D 3.23 | C 2.23 | S 3.25 | G 2.9 | A 2.52 | K 2.66 | E 3.17
L13: G 3.42 | T 3.51 | R 5.53 | S 2.79 | E 2.77 | C 4.07 | N 3.26 | Q 3.79 | A 2.67 | K 5.04 | D 4.69 | P 3.64 | H 3.83 | F 3.52 | V 2.79 | W 4.33 | Y 3.47
